# Read-outs that look alike come from different tables or passages of the source.
# Legend:
# [1] = Solubility of triamcinolone acetonide; assay type: physicochemical; conditions: saline or isotonic; 37 C in 0.2 M potassium chloride
# Description: Consider a device with 10 uL reservoir volume loaded with 0.4 mg using a commercial drug product (40 mg/mL triamcinolone acetonide). […] The target release rate is 1 ug/day based upon published clinical data. As an example, consider the 0.2 media grade stainless steel characterized in Example 8 with P/F=0.12 and a thickness of 0.5 mm. […] This could be achieved with a cylindrical device having an inner diameter of 2 mm and a length of porous tubing of 1 mm. Alternatively, the end of the device could be a porous cup with height of 0.8 mm (0.5 mm thick porous face plus 0.3 mm length) of porous tubing.
# [2] = human eye (Lucentis package insert); listed as ranibizumab; cited from earlier work
# [3] = cited from earlier work
# [4] = tested on: laser photocoagulation treatment-induced Grade IV choroidal neovascularization (CNV) lesions; conditions: intravitreal injection, all doses tested; cited from earlier work
Compound,solubility [1] [µg/mL],half-life in the vitreous [2] [h],"Half-life ([3]; monkey model (Gaudreault et al.), parameter of Simulations 1-5) [h]","half-life in the vitreous ([3]; rabbit and monkey, listed as ranibizumab)",development of Grade IV CNV lesions [4]
CC1(C)O[C@@H]2C[C@H]3[C@@H]4CCC5=CC(=O)C=C[C@]5(C)[C@@]4(F)[C@@H](O)C[C@]3(C)[C@]2(C(=O)CO)O1 [triamcinolone acetonide],19,,,,
ranibizumab [Lucentis],,~220,63.1,approximately 3 days,completely inhibited
